Article PMC6821609

Biological target: T1, HNF4α (hepatocyte nuclear factor 4α) (Homo sapiens, UniProt P41235 1-474)
T1 sequence: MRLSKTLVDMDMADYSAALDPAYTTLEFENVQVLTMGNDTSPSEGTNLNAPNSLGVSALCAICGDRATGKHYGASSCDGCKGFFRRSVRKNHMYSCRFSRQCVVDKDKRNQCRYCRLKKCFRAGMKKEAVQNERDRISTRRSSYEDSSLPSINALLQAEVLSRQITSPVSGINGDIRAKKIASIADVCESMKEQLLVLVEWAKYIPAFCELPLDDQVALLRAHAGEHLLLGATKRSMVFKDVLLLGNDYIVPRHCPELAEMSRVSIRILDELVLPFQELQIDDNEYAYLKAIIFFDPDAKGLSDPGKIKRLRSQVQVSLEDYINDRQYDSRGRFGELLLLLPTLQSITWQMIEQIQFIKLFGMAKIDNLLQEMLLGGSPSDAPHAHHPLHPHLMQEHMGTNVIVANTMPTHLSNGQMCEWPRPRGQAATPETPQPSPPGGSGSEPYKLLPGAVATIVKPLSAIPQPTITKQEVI
Test: EMSA

Row | Binder | binding result
1 | F9-wt (cfa_F9n_wt_Biotin) (dsDNA) DNA 1: CAGAAGTAAATACAGCTCAACTTGTACTTTGGAACAACTGGTCAACC DNA 2: GGTTGACCAGTTGTTCCAAAGTACAAGTTGAGCTGTATTTACTTCTG | binds
2 | F9-mut (cfa_F9n_mut_Biotin) (dsDNA) DNA 1: CCAGAAGTAAATACAGCTCAACTTGTATTTGGAACAACTGGTCAACC DNA 2: GGTTGACCAGTTGTTCCAAATACAAGTTGAGCTGTATTTACTTCTGG | no binding
